Measurements: patent publication US20140348832A1 (Sanofi, published 2014)

Columns and labels:
[1] = target: mouse cytotoxic T lymphocyte associated antigen-4 (CTLA-4) on activated T cells (mouse, UniProt P09793 36-223); assay: cell-based or functional assay
[2] = target: MHCII (pMHCII) on mouse antigen presenting cells; assay: cell-based or functional assay

EC50 of BsB for inducing Tregs in vitro [2]: ~100 nM
potency of BsB at inducing the production of Tregs (EC50) [2]: > 100 nM
B1: BsB, bispecific fusion protein CD80wa-LAG-3-Fc (mouse CD80w88a(aa1-235)-G9-Lag-3(aa25-260)-IgG2a(aa241-474)) (Fc fusion)
chain: VDEQLSKSVKDKVLLPCRYNSPHEDESEDRIYWQKHDKVVLSVIAGKLKVAPEYKNRTLYDNTTYSLIILGLVLSDRGTYSCVVQKKERGTYEVKHLALVKLSIKADFSTPNITESGNPSADTKRITCFASGGFPKPRFSWLENGRELPGINTTISQDPESELYTISSQLDFNTTRNHTIKCLIKYGDAHVSEDFTWGGGGGGGGGGPGKELPVVWAQEGAPVHLPCSLKSPNLDPNFLRRGGVIWQHQPDSGQPTPIPALDLHQGMPSPRQPAPGRYTVLSVAPGGLRSGRQPLHPHVQLEERGLQRGDFSLWLRPALRTDAGEYHATVRLPNRALSCSLRLRVGQASMIASPSGVLKLSDWVLLNCSFSRPDRPVSVHWFQGQNRVPVYNSPRHFLAETFLLLPQVSPLDSGTWGCVLTYRDGFNVSITYNLKVLGLEPVAPRGPTIKPCPPCKCPAPNLLGGPSVFIFPPKIKDVLMISLSPMVTCVVVDVSEDDPDVQISWFVNNVEVLTAQTQTHREDYNSTLRVVSALPIQHQDWMSGKEFKCKVNNKALPAPIERTISKPKGSVRAPQVYVLPPPEEEMTKKQVTLTCMVTDFMPEDIYVEWTNNGKTELNYKNTEPVLDSDGSYFMYSKLRVEKKNWVERNSYSCSVVHEGLHNHHTTKSFSRTPGK
EC50 of BsB for inducing Tregs in vitro [1]: ~100 nM
potency of BsB at inducing the production of Tregs (EC50) [1]: > 100 nM
